In a protein production outcome set (Wang et al. 2014) one finds protein production data, which are given here for 22 sequences.

The nature of the data set: label from the status in PepcDB records.
With “MVCYNNPMELLMKIIAFSCHLFFIGLSYQLLISVIDWTKFSHYHPENLGRLRLFVFLLATALGYLVSHCMLELLQISQTLFFEFR”, the protein production entry is given as “failed”.
With “MLNLQRMSLFIAVVDSGSFTAAAAASGQTKAVVSFNIRQLEKELGVTLLLRSTRRLTLTDAGVLFYQKGVNLLNAAKNLQDEVRASHSGLGGELRITTTSEFGEQVVIPVLAQFSQRHPDLRIRHMSSSHHADLIAERFDVAIRLGSLADSRYRAALISRFTILPVAAPQWLARNPVSSLESLAQAEWIIHERLPTPLRWTVTNNHGQHSRLEISKAGKISVDSARSLMAFALAGSGVALLPQWLVNTALEDGTLIHLLPDYHFPRQGIYAVYPDARHVSTKVRAFIDFLRSQWDCGEHAPSS”, the protein production entry is on record as “failed”.
With “MPGSPRGLCTRSRKSTMSTHGTIGVLGAGEVGQAVADKAVRHGHEVLIGNSRGPRTLEALVGRLGPKARAVTAEEAVQPELVFLSVPFFAVPELTGLTTWAGKIVVDTTNQFAAANPWRGRYDVGDLTGSEWVARHLPGARLVKALNTLFATFIAADPRHAEGRQVAFYAGDDADAKTAVAGLLDEFGFAALDLGGLRDGGRLMQLDGALSAKHLLLQDVG”, the protein production entry was “failed”.
Then “MKGENMMVKLIALYEQPEDKQAFDEHYFNTHAPLTRKIPGLRDMKVTRIVGSPMGESKFYLMCEMYYDDHESLQQAMRTDEGKASGKDAMKFAGKLLTLMIGEEMDE”, with “not failed”; and “MNAAQVQALIRMGLPMAEDIDFRVERLDERHALARIPFHGKLVRPGGTLSGPTIMALADAAMYAVILGRLGAVEMAVTSNLNINFLSKPRPEDLLAEASILKLGRRQVVCEVGVFSQSNEEDLVAHVTGTYALPLLEHHHHHH”, with “not failed”; and “NLKDVYVSIADYEGDEETAGFQEGVSMEVLERNPNGWWYCQILDGVKPFKGWVPSNYLEKKN”, with “not failed”.
Regarding “MDKNALRKQILQKRMALSTIEKSHLDQKINQKLVAFLTPKPCIKTIALYEPIKNEVTFVDFFFEFLKINQIRAVYPKVISDTEIIFIDQETNTFEPNQIDCFLIPLVGFNKDNYRLGFGKGYYDRYLMQLTRQQPKIGIAYSFQKGDFLADPWDVQLDLIINDE”, the protein production entry was “not failed”.
Turning to “MNDVASTKSRVAAVSVVASATMAAAKFAVGIAIGSLALISEALHSSIDLVATIITWFVVRISDRPADDAHHYGHGKIESLSALGVIAMLYVLAGGILVEAYSRLREGAAPPTFSYLAFVILGVDIVVNLWRAWALHRTAVATKSQALAADALHFASDVLGSFAVIAGLALAAAGFHWGDAAAAIGVAVMISLLGLRLGRSTIQTLLDRAPEGVSDKAREAIGAVPGVVGVERLRARMVGPTHFIDALVEVPRTYPIDRIDEIKRKAQESMSEIFGDADLTFTAIPVARDNESVRERIMVIARNSGLAVHHVTVHDLGGHKLIVSIDLEVDGNMPLIEAHDIAHKLEDHIREDFGADVEVDTHIEPLEPELPQGSDAEPARVEEIRLALRRLTHDGAIHDVHSVRVRDTDAGEIVNFHCYADPSMSVISVHDHVDEIERKLRAKFPSVKRVISHAEPPNAD”, the protein production result was “failed”.
The same measure for “MLDFNIEGLIPKNMEKRGELVLNEYLKEIEDVFNHRKIPENGIDDEKIKLFLKFLSMMDTDKDPKSVRIGEREARTYSKIHEELSSGFCHGIGRSGNLVDPQPKASGASIMYALTNKILESFFKQLGLNVHAIATPISTGMSISLCLSAARKKYGSNVVIYPYASHKSPIKAVSFVGMNMRLVETVLDGDRVYVPVEDIENAIKKEIELGNRPCVLSTLTFFPPRNSDDIVEIAKICENYDIPHIINGAYAIQNNYYLEKLKKAFKYRVDAVVSSSDKNLLTPIGGGLVYSTDAEFIKEISLSYPGRASATPVVNTLVSLLSMGSKNYLELVKNQKNSKKLLDELLNDLSKKTGGKFLDVESPIASCISVNSDPVEIAAKLYNLRVTGPRGIKKTDHFGNCYLGTYTHDYIVMNAAIGVRTEDIVNSVSKLEKILL”: “failed”.
As for “RGIAVYVEHHNGNIHPVTYELIGKAREMASKIKQPVYCVFVGKDIKDKCSNLISYGVDEVFVYDEDEFKDFRIEPYSKAIENFIDKIKPTIVLVGGTTLGRSLAPRLAARFRTGLTADCTILDIQSNTDLDQIRPAFGGNIMAHINTPNNRPQFATVRYKIFSAPEKIENTTGKITLCKVEKKELKSKIKVLS”, the protein production entry is reported as “not failed”.
The same measure for “MIGHNSPTRTAPLISVTTLDKVALSRLGRDVAVRNRKSRAVLAYLALSPHGFETRERICGLLWSESDEARARASLRQTVVDLKACLAEIEGVFSGDRLNVTLKPSLVTVDVGEIRHELKAGRIPPILLERQRVAESFLNGLDDIDPSFRNWVLVQRQCLQDEFISCLEAMAKAAADWPALKRAGQALLNLDPTNEIGCRAVMEASARMGDQATALRAYKGLWDLLETEFDSEPSAATQALVSDIKLGTIGATDRGAVTAIAAEAFGSQAQRLQEPAAGVLLFVREFELVSGSVRARNAVQIFRSELVASLVRFRDWAVMEWEGHPPRFTENAYCIEATGFIDGPTLRLSMTLKQLASGRYIWSEQFVIENSQWYQTQQRLIRRIAVALGVSMSSERLVQIASIPDLSLEQFDRWLRAQELIFQWRPESEERAEALFRSIIAESPRFAAAYAGLAGIINSRHLIFPGIGRRRERHAEALTFAKQATQIDPIDSRSQLHLAWSYAMNGIPQQAAISFLLACELNGNDPWTLVSASLGLAYCDDRENARRIATLALQTGLGVSRLQWSYQAGVRFLLGDYAGCVEAAERAADSVSYIGGWKAAALALLGNEKAAHEEADRFLAQLKTTWFGNESPEPGNVGTWLMDSFPIYSPEAVEALRRGLAGAGIVVSHMPLPEPVLSAAPDGVVRDA”: “failed”; for “MSDKHDVIVAGAGPAGAQCARDLAERGYDVVVLEAEPEDEFPRQSNKSTAGTFASMMGAFGVPDDVVMQYTDDVVLESPHEYFVQDQPGAVLEFAEFKQWLVAAGEQQGAEYRFEARVNNPITEGGEIVGVKYDGDEEVYGDIIIDATGPAAPLAKKLGVTDLRRSNQAIGIEWEMENVAVDHEGYADLSDAMMLRLDHDLAPGGYSWIFHTGADTAKVGICYIQNESYQRFGDASKSIDDHLDYWMETDPRLADATKLAGKQHRGSAHIQLPANFSTDNFMAIGDTVPTVDPLWGEGIHKCMESARAAAITADRCFMGDDRDTSADALSIYDDLWHKRVAPNARMRLTMTQLLYLASNERYDRLMSDLQTADVGTLSGANEGGLRSLLEFVHTEDVPLLARFARDRLRA”: “failed”.
With “MVLPPVFYLARMWLMSQDSRVFFRIFFGIGLVLILISVVIFYNQFTYSKDAIHTEGVIVDTVWHSSHSHRTGKNGSWYPVVAFRPTPDYTLIFNSSIGSDFYEDSEGDKVNVYYSPGHPEKAEINNPWVNFFKWGFIGIMGVIFISVGLLISMPSSKKTRRKRKSRP”, the protein production entry is “failed”.
As to “MLKLSCNVTDHIHNLFSNSRRIFVPVHRQTRPISCFQLKKEPLRAILSADHGNSSVRVADTVSGTSPADRLRFGRLMEDGFSYKEKFIVRSYEVGINKTATIETIANLLQEVACNHVQNVGFSTDGFATTLTMRKLHLIWVTARMHIEIYKYPAWSDVVEIETWCQSEGRIGTRRDWILKDCATGEVIGRATSKWVMMNQDTRRLQRVTDEVRDEYLVFCPPEPRLAFPEENNSSLKKIPKLEDPAQYSMLGLKPRRADLDMNQHVNNVTYIGWVLESIPQEIIDTHELKVITLDYRRECQQDDIVDSLTTSETPNEVVSKLTGTNGSTTSSKREHNESHFLHILRLSENGQEINRGRTQWRKKSSR”, the protein production entry is recorded as “failed”.
As for “MEVFKVFATLSLVDMISGPLGSVSEGMELLGGKVSALGSRMGKLAVAMAPVALAAGVLLGTLGLAAREAIAFESAMADVAKVVNFESAGELKAMSATILDMSTRIPMAADGLAAIVAAAAQSGVARQDLTDFAEQAAKMGVAFDLTGDQAGKMMADWRAGMNLTLPRVYALADATNHLSNNMNATAPALGEVIQRVGAVGMAAGLSETQVAALGAAFLSAGASPEIASTALKKFTSTLVRGSALSKDAQAAFGALGFSVTQMAKDMQTDAQGTIFKVLQALADKPKELQMSLLTEMFGEEALGAIAPLLANMGNLSQAFDLVGDSAAYAGSMQGEFEARSRTTENALLLLGNKAKALMIVIGSYFLPVIGAVADALGGFVDMLRAAAQTAGGEFALKLVAGVSAAIVAATALSGALWLLSAAGPMLAAALAPLKAALLGLSWPMWAIIAVVGALYLAYKTNFAGIGDTLRRWWQTVSLVVRGVMAVFSTLTDGVGEIRGELATEIRAAGLEGLVASVGSVVYRVQAFFRGLWDGVSGVGDRLAVVFGPTLDRLGAVFGQLFTVLGGLGEAFFGVSAASDVSGWERFGNVIGSVVCGAVEILATAFTALLAPIEMAAGMLQFVLDLFNGVSLFDAGAKLLGTFVDGIMSMVSAPFEAAKKALDMVGKLLPHSDADEGPLSTLTASGMATLSTMGEGMTAAAPGLHDTLETALGDAVAPQIEAPATADVQPGRKTARAAQGRGVTITIGTLNLPGVTNAQDFVAQLQDFVAAYDGVPEGGLV”, the protein production result was “failed”.
“MMIDPELRPAFLPAGKLRAAINLGNPILAGTDAAGQAVGVSVDLAREFARRLNAGIELRVFDTAGQSVDAVTREEADIGFFAIDPARGAGIAFTGPYVLIEGAYLVRDDSPLQANEDVDRAGKRVTVGKGSAYDLHLTRALQHLEHHHHHH”: the protein production result is on record as “not failed”.
As to “MHCRIRNTISCSNYIFSAVWNFLISVFINKTNFNNSVYCRIFKVSIGLRKSISSTTRTRWVPVVFICSRSTNRWTGARSVNPIRNLEHHHHHH”, the protein production entry is given as “failed”.
Consider “MSLSSEVVLMKPYEKLVERFNEMAAEFLSYFPTVKSVGNLESELDKRRFVILFRAMLRLRNEVKGYNEFDAEDLTIEEQRFADYQSKYLDMSNEFAITSEKEDAESILQDIDFELELVHRDIINVMYILALLQDLKPESSSYPKDRKAVLDTMDSNPELRSKIALIDNFIKLHIDGRQSNDLPADMESDLDKYIATQKAIAIEQVATEEGIDSTLLHEYISEYEYLGKPKNEGHHHHHH”, for which the protein production result is “not failed”.
In the case of “MTKTSSGLKIMFRKIKLEVVRMDLSTIFASLLGLFLSLLTTGVYRYYSKPKIHKTVGVVILNPDKVDAKKIPPNLPEGLRRVTNSLEQELVLKLKKDQQKKAMLLIKISIIGIIISTIGLILGQ”, the protein production entry was “failed”.
In the case of “MSDIKKLGSSWIINWFFGFNQIPTNEDSSIYMKSVLTCAKADGVISPEEKDWALGFCASWGVADWVIEDLKTYEADEALEEVIARSPQVSMAQRDILLSAIWVSAADGELHEKEKAKIRKMATILGIKEEIVDQLEQLYYYEAALRQKRLNLLYPQKSPY”, the protein production result is reported as “not failed”.
With “MSHSVEAEDNKLVKTFKDIIPLTFGEEIGNSVSHGVAAFIALCALPYAAIHSFLEYGVLGAFSVSVYVISIFLMFISSTVYHAMPNQSSHKFILRIIDHSMIYVAIAGTYTPICLTLVGGWIGWSSMVVLWGITIWGILYKSLAKNVNHKLSLIMYLVMGWIGVLFLPTIIFDSSLLFMLFILFGGLAYTIGAWFYAQKNRPYFHMIWHFFIIVASVFHFVAIMYFM”, the protein production entry is given as “failed”.
As for “MSELQILIFNAAVFSILAVYHYWKNRKLNIAFYILAYYSICAWGALLYHEHELFHYMRGRETYSIIPFLYLIPVIFLFAYPIIRYDNTRITRIETLNSNFFINLVWILLFIQIVLYIILFPSFLKAILSSNIGDYRNDTYDESEIVQFPNYFFNILCRLYMGARNVVILIAAYGLLVIKTHRKLLKIFLVTSLCFPVYMFTAYASRAVMIMTFFFLVFIFVFLSVFMNVGLKKKIVSYLILILVPISSAFILISNSRFGNLATYMFYRYLGESFNNYNTHFFYELKGNTWGEAYFVFFRKLMGISSNFKTTREKWEWLDNITGVDTHVFYTFVGGLNIEFGFVGTIVIGLLLSFFMVKKMRPYNVLTLPKFIALGMLAYTLINGVFFFVLQGDWGNLEILFTLFFCFLFSKYRTRKYINK”, the protein production entry is given as “failed”.
